Measurements published in the DeepSol protein solubility set.

Assay: soluble on expression in E. coli; label from the status in PepcDB or PDB records

Sequence	soluble on expression in E. coli
MTKRGPDDLQLSLRNGVGGASTTAPGVAAAAYYANVMTADSEPKKAKLDPTLYSSQFYTPAMHHGLMTADASTVAAVTAAANATTAQLLTGNPITQIQGIQLSTLPQCNSTSAVTSIPVSKVVHVRNIPPDLVDVELMQLCIQYGPVSNYMMLKGKSQAFVEYEEEASAAAFVSGMTAVPIQIRGRTLFAQYSTHRELKFDKNKAISDTESVANGSVSNFEVGTQQQPNSVLRTIIENMMFPVSLDVLYQLFTRYGKVLRIITFNKNNTFQALVQMSEANSAQLAKQGLENQNVYNGCCTLRIDYSKLSTLNVKYNNDKSRDYTNPNLPAGEMTLEQTIAMSIPGLQNLIPANPYNFAFGANPATTFLTTQLAASTAAAAAVNDSANAAALAPYLNPLGLTSANLAPSISSMRFPMINLTPVILVSNLHEMKVTTDALFTLFGVYGDVMRVKILYNKKDNALIQYSEPQQAQLALTHLDKVKWHDRLIRVAPSKHTNVQMPKEGQPDAGLTRDYAHSTLHRFKKPGSKNYLNIYPPCATLHLSNIPTSVSEEKLKEMFAEAGFAVKAFKFFPKDHKMALCQLEDIETAIDALIAMHNHKLAENAHLRVSFSKSGI	not soluble
GAQVSTQKTGAHESIIHYTNINYYKDAASNSANRQDFTQDPGKFTEPVKDIMVKSLPALN	soluble
MHGVDEDDLERQRIEKIKEVQEAVAKLTGAKFQKLENLQRMERMLNKEIELLQNATRKALETHLVTCNYAFYKSIIDEVEEMENATAVLKTFKRDNVSVTVDIVMKEPNVWIKLVNRPAKTVLIEYRDGKRNGDVIAQIKQHLFVSRRFNRPQIRIYFRNGVLAEMAQKLIRHGIVVIGEHVDKSDPSLRGKWNEELIERLGEEEDSDWDEVDEDAASIPTLPSSQSQSESTLPRLNLDISAVMLLVSNMCEPGGVNYQFKEEMINKHVECERLKPAKAEVLEKLKGHHLIMCELAYRRVAEIVKNVGGPTEKKRFEELSKTIERVQDQPSDEIGRVVKLRNIKGITSITKRVFSCAEVTKTTTVTANQKFLTHSRAKHIYFDVIEIPPRPLTEQKEATAKVI	not soluble
MSLSRSEEMHRLTENVYKTIMEQFNPSLRNFIAMGKNYEKALAGVTFAAKGYFDALVKMGELASESQGSKELGDVLFQMAEVHRQIQNQLEETLKSFHNELLTQLEQKVELDSRYLSAALKKYQTEQRSKGDALDKCQAELKKLRKKSQGSKNPQKYSDKELQYIDAISNKQGELENYVSDGYKTALTEERRRFCFLVEKQCAVAKNSAAYHSKGKELLAQKLPLWQQACADPNKIPDRAVQLMQQMANSNGSILPSALSASKSNLVISDPIPGAKPLPVPPELAPFVGRMSAQENVPVMNGVAGPDSEDYNPWADRKAAQPKSLSPPQSQSKLSDSYSNTLPVRKSVTPKNSYATTENKTLPRSSSMAAGLERNGRMRVKAIFSHAAGDNSTLLSFKEGDLITLLVPEARDGWHYGESEKTKMRGWFPFSYTRVLDSDGSDRLHMSLQQGKSSSTGNLLDKDDLALPPPDYGTSSRAFPTQTAGTFKQRPYSVAVPAFSQGLDDYGARSVSR	not soluble
MPDLMHSELTMSGPEQSLLAGALLGAGLPADAHRHLELAGRDYQSEALAEQHLREAHLLAPDHAAVLIGLYRFYFYKGRLGEALEVAQACLCKAARDNGLASDWRKVRRGDAEFSSYSAVLPRFYLFALKAYAYLQMRLGQLDEGHAAVEKLLELDPTDKVGAAVLLDVWRRIGLEHHHHHH	not soluble
MGHHHHHHSHMWKDFIDHISSLLHSVEVEVSYFAAGIIAHLISRGEQAWTLSRSQRNSLLDDLHSAILKWPTPECEMVAYRSFNPFFPLLGCFTTPGVQLWAVCAMQHVCSKNPSRYCSMLIEEGGLQHLYNIKDHEHTDPHVQQIAVAILDSLEKHIVRHGRPPPCKKQPQARLN	not soluble
MKKQNPWIYLNEEEKNQILNFSESYKKFISKFKTEREVTAYALDKAKKLGFINAEEKKNLMPGDKIFYTCREKSVAFAIIGKNPIEDGMNFIVSHTDSPRLDAKPSPISEENELTFIKTNYYGGIKKYQWLSTPLSIRGVVFLKNGEKVEINIGDNENDPVFVIPDILPHLDRKIQRNKKSDEIVEGENLKILIGSLPIETKEKNKVKLATLQLIKEKYKIEEEDFVSSEIEIVPAGTAKDVGFDKALIGAYGQDDKICVFTSLESIFDLEETPNKTAICFLVDKEEIGSTGSTGLDSRYLEYFVSDMIFKIKKSEYNNLHVQKALWNSKSISADVCAAINPLFSSVHDEQNAPQLGYGIPIMKYTGHGGKSMASDADAELVSYIRQLLNKNNIAWQVATLGKVEEGGGGTVAKFLAGYGIRTIDMGPAVISMHSPMEITSKFDLYNAYLAYKAFYRE	soluble
MGSDKIHHHHHHMRIVFVGTPEFAAEILEHLIKNGFNVVGVVTQPDKPRGRGRKVAPTPVKAVAEKHEVPFIQPESINKKEALEFLRSVRPDVIIVASYGKILGEKVLSLPRLGCYNIHPSLLPKYRGASPIQRVLENGEERTGVTIYKMVKELDAGPIALQKEISVDPFETFDQLEKRLIELSKEMLIEFLEKLKTGNIELKEQDHSRATYAPMIKKEDLIVDFSKDAESVKNKIRAYDSRPGARAFLGNVEVKLFGVTAIDSSGDEPGLINYIDREGAWIGTGDGKVKVRYIQFPGKKKMTFWEAKNGRLIIEGMRFERRYES	not soluble
MEFTAEQLSQYNGTDESKPIYVAIKGRVFDVTTGKSFYGSGGDYSMFAGKDASRALGKMSKNEEDVSPSLEGLTEKEINTLNDWETKFEAKYPVVGRVVS	soluble
LPDLRRRVLSGPLFAWFQKVLPPMSDTEREAIEAGTVWWDGELFSGRPDWQKLLDYPKAQLTEEEQAFVDGPTEELCAMVSDWDIGQRMDLPEEAWAFIKQHGFFGLIIPKEYGGKGFSAFAHSQVVMKLATRSGDLASTVMVPNSLGPAELLLHYGTDEQRQRYLPSLAKGDDIPCFALTGPYAGSDAGGMTDVGIVCKGEWEGREVLGLRLTWEKRYITLGPVATLLGLAFKCHDPDHLLGDEEDLGITLALIPTDTPGVEIGRRHVPLGAAFMNGPNSGKDVFVPLEYIIGGQEMIGKGWMMLMNCLSVGRSISLPAVGTSAGKASSYVSGRYAQVREQFNVPIAAFEGIQEALARIGGNAWLMDSARILTANAVDLGEKPSVLSAILKYHLTERGRECIAHAMDIHGGKGIIMGPNNYLGRSWQGAPIFITVEGANILSRNLMIFGQGAIRCHPYVLKEMELAQREDKDQAAREFDA	not soluble
MPEGFDAYCICTGTPTARDLSIPGRELKGIHFALEMLAQQNRILEGQTFPKDKLVNAKGKKVLVIGGGDTGSDCIGTSVRQGATSVTQIEIMPKPPVGHNPSTPWPQWPVVFKTTSSHEEGCTRRWCLTSNQFLGKNGKVTGVEVEEVEWTPATDGGRPTMNLTGKKEVIEADMVLLAMGFLKPEQPKFAENVFLAGDAATGASLVVRAMAGGRKAAADIDHYLEHHHHHH	not soluble
MSLQFSVLASGSTGNAFYLETEDHAFLVDAGLSGKAMDGLMAQIGRKLDDVDGIFVTHEHSDHIKGLGVVARKYKLPIYANEKTWKAMENQIGKIDTDQKFVFPMETVKSFGGLDVESFGVSHDAAEPMFYVFHYSGRKLALMTDTGYVSDRMKGIIRSANVFVFESNHDVGMLQMGRYPWSIKRRILSDVGHVSNEDAALAMTDVIGDETSRIYLAHLSQDNNMKELARMSVQQTLASKGFVTGETFDLYDTDPKKATPLWLYNFSMLEHHHHHH	not soluble
MRGFSGQPLSDDDNYRIEKTQRNTIPERLHFSRERNMPIASIFGTRGYFVFSSEQSYDKFKQTNFNISTLDADGVGVPLFHIVQSYNVIGKITRSSPDFYIYKYVLQGVQDPPLYSDCKVICQDKVFRLCKILYCEIYAHQGFFETKYDFFYPSKTQPVKKYQIIKQSNMRDLYSTLDGMRFRWHVKFYSDHFRLMFLDEDRLNYSNSNQKERQKPDQGKSKAPDFVIGHYTRTFSDILPRSTSKCSNLIIGEHSKPDSLGITTVPDLTQEFACQGALIHYLLHIERERK	soluble
MELEDANVTKKVELRPLIGLTRGLPPTDLETITIDAIRTHRRLVEKADELFQALPETYKTGQACGGPQHIRYIEASIEMHAQMSALNTLYSILGFIPKVVVN	soluble
MDIQIKRAYEPADPADGCRILVDRLWPRGLTKQQVACDLWLKEIAPTADLRKWFNHDPAKWAEFQRRYRDELSVNPCVKELLDRAAKGRLTLLYGARDAECNQAVVLRDYLLERN	not soluble
